According to patent publication US20240016892A1 (SHATTUCK LABS, published 2024):

Legend:
mouse 4-1BB-His = molecular target: T1, mouse 4-1BB-His (mouse, UniProt P20334 24-187); test: MSD: coat m41BB-His (Acro); detection anti-mouse Sulfo (MSD)
T1 construct: not shown: His tag
T1 sequence (looked up): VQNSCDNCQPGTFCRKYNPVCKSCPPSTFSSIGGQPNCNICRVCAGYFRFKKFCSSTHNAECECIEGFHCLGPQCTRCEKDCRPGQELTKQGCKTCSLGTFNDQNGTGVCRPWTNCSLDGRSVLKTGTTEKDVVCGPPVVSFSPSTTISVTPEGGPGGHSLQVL
Protocol: (§1) Mouse 4-1BB-His was coated on plates and increasing amounts of the mSIRPα-Fc-4-1BBL, or mSIRPα-Fc-CD40L chimeric proteins were added to the plates for capture by the plate-bound mouse 4-1BB-His. The mSIRPα-Fc-CD40L chimeric protein was used as a negative control for binding to mouse 4-1BB. Binding of the chimeric proteins to 4-1BB-His was detected using an anti-mouse-SULFO-TAG antibody. Binding was assayed using an electrochemiluminescence (ECL) readout.

mouse CD47-His = molecular target: T2, mouse CD47-His (mouse, UniProt Q61735 19-140, limits assumed); test: MSD: coat mCD47-His (Acro); detection anti-mouse Sulfo (MSD)
T2 construct: not shown: His tag
T2 sequence (looked up): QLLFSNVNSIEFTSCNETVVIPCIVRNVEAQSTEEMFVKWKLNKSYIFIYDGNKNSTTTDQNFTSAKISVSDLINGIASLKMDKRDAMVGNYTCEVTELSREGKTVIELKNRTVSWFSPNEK
Protocol: as §1, with “CD47-His” for “4-1BB-His”, “mSIRPα-Fc-4-1BBL” for “mSIRPα-Fc-4-1BBL,”, “CD47-His.” for “4-1BB-His.”, “positive” for “negative”, “CD47.” for “4-1BB.”, “anti-mouse SULFO-TAG” for “anti-mouse-SULFO-TAG”

mouse CD47-Fc = molecular target: T3, mouse CD47-Fc (mouse, UniProt Q61735 19-140, limits assumed); test: MSD dual-binding sandwich: coat mCD47-Fc (Acro); detect m41BB-His (Acro); anti-His Biotin + Streptavidin Sulfo
T3 construct: not shown: Fc; not described
T3 sequence (looked up): T2 sequence (looked up)
Protocol: To understand whether the mouse SIRPα-Fc-4-1BBL chimeric protein can contemporaneously bind to mouse 4-1BB and CD47, mouse CD47-Fc was coated on plates and increasing amounts of the mSIRPα-Fc-4-1BBL, or PD-1-Fc-4-1BBL chimeric proteins were added to the plates for capture by the plate-bound mouse CD47-Fc. The PD-1-Fc-4-1BBL chimeric protein was used as a negative control. Then, mouse 4-1BB-His was added to the plate for capture by any chimeric protein, which was captured in turn by the mouse CD47-Fc protein. An anti-His-biotin and streptavidin-SULFO-TAG were used for detection. Binding was assayed using an electrochemiluminescence (ECL) readout.

murine recombinant HVEM = molecular target: T4, murine recombinant HVEM (mouse, UniProt Q80WM9 39-206); test: ELISA on recombinant murine targets
T4 construct: also called mouse HVEM
T4 sequence (looked up): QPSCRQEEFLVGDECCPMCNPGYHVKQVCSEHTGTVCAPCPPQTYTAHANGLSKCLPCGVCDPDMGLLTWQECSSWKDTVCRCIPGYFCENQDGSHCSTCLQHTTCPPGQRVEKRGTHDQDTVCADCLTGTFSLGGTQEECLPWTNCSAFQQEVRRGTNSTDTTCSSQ

CHOK1/mLTβR = molecular target: T5, CHOK1/mLTβR (mouse, UniProt P50284); test: flow cytometry on CHOK1/mLTβR cells
T5 construct: expressed on the surface of stably transfected CHO-K1 cells; also called cell surface mouse LTβR on CHO-K1/mLTβR cells
T5 sequence (P50284 31-415 limits assumed): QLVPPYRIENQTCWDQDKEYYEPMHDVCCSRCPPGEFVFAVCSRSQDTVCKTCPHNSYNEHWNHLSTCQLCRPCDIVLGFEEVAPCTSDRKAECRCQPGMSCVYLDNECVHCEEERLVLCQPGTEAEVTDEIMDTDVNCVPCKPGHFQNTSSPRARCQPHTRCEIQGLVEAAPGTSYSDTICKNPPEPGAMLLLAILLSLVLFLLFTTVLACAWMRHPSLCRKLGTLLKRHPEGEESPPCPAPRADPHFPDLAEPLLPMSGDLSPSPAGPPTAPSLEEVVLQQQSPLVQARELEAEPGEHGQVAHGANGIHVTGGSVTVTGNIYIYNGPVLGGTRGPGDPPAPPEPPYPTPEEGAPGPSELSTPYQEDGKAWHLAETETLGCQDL

anti-H&L = molecular target: T6, anti-H&L; test: ELISA: capture anti-H&L; detection anti-Fc-HRP
T6 construct: also called capture antibody of the Fc ELISA panel

murine recombinant LTβR = molecular target: T7, murine recombinant LTβR (mouse, UniProt P50284 31-223); test: ELISA: capture mLTβR-His; detection anti-mLIGHT-Bio
T7 construct: also called mouse LTβR; printed LOUR
T7 sequence (P50284 31-223): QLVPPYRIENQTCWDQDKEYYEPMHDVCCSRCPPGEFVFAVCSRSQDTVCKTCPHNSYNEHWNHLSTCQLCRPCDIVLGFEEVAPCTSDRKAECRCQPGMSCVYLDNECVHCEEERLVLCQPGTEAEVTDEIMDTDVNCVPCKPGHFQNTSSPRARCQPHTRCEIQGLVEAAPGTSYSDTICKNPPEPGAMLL

murine recombinant PVR = molecular target: T8, murine recombinant PVR (mouse); test: ELISA: capture mCD115/PVR (so in the source); detection anti-Fc-HRP
T8 construct: also called mouse PVR

B1: mouse SIRPα-Fc-4-1BBL chimeric protein (Fc fusion)
chain: KELKVTQPEKSVSVAAGDSTVLNCTLTSLLPVGPIKWYRGVGQSRLLIYSFTGEHFPRVTNVSDATKRNNMDFSIRISNVTPEDAGTYYCVKFQKGPSEPDTEIQSGGGTEVYVLAKPSPPEVSGPADRGIPDQKVNFTCKSHGFSPRNITLKWFKDGQELHHLETTVNPSGKNVSYNISSTVRVVLNSMDVHSKVICEVAHITLDRSPLRGIANLSNFIRVSPTVKVTQQSPTSMNQVNLTCRAERFYPEDLQLIWLENGNVSRNDTPKNLTKNTDGTYNYTSLFLVNSSAHREDVVFTCQVKHDQQPAITRNHTVLGLAHSSDQGSMQTFPGNNATHNWNVPRDCGCKPCICTVPEVSSVFIFPPKPKDVLTITLTPKVTCVVVDISKDDPEVQFSWFVDDVEVHTAQTQPREEQFNSTFRSVSELPIMHQDWLNGKEFKCRVNSAAFPAPIEKTISKTKGRPKAPQVYTIPPPKEQMAKDKVSLTCMITDFFPEDITVEWQWNGQPAENYKNTQPIMDTDGSYFVYSKLNVQKSNWEAGNTFTCSVLHEGLHNHHTEKSLSHSPGIIEGRMDRTEPRPALTITTSPNLGTRENNADQVTPVSHIGCPNTTQQGSPVFAKLLAKNQASLCNTTLNWHSQDGAGSSYLSQGLRYEEDKKELVVDSPGLYYVFLELKLSPTFTNTGHKVQGWVSLVLQAKPQVDDFDNLALTVELFPCSMENKLVDRSWSQLLLLKAGHRLSVGLRAYLHGAQDAYRDWELSYPNTTSFGLFLVKPDNPWE
notes: also called mSIRPα-Fc-4-1BBL
EC50 (mouse 4-1BB-His): 0.674 nM | EC50 (mouse CD47-His): 0.609 nM | EC50 (mouse CD47-Fc): 22.4 nM

B2: mouse TIGIT-Fc-LIGHT chimeric protein (Fc fusion)
chain: TIDTKRNISAEEGGSVILQCHFSSDTAEVTQVDWKQQDQLLAIYSVDLGWHVASVFSDRVVPGPSLGLTFQSLTMNDTGEYFCTYHTYPGGIYKGRIFLKVQESSDDRNGLAQFQTAPLGVPRDCGCKPCICTVPEVSSVFIFPPKPKDVLTITLTPKVTCVVVDISKDDPEVQFSWFVDDVEVHTAQTQPREEQFNSTFRSVSELPIMHQDWLNGKEFKCRVNSAAFPAPIEKTISKTKGRPKAPQVYTIPPPKEQMAKDKVSLTCMITDFFPEDITVEWQWNGQPAENYKNTQPIMDTDGSYFVYSKLNVQKSNWEAGNTFTCSVLHEGLHNHHTEKSLSHSPGKIEGRMDLHQRLGDIVAHLPDGGKGSWEKLIQDQRSHQANPAAHLTGANASLIGIGGPLLWETRLGLAFLRGLTYHDGALVTMEPGYYYVYSKVQLSGVGCPQGLANGLPITHGLYKRTSRYPKELELLVSRRSPCGRANSSRVWWDSSFLGGVVHLEAGEEVVVRVPGNRLVRPRDGTRSYFGAFMV
notes: also called mTIGIT-Fc-LIGHT; murine TIGIT-Fc-LIGHT chimeric protein
binding result (murine recombinant HVEM): binds | binding result (CHOK1/mLTβR): binds | EC50 (read off the curve) (anti-H&L): ~4 nM | binding result (murine recombinant LTβR): binds | EC50 (read off the curve) (murine recombinant PVR): ~5 nM
